Measurements published in paper PMC5928183, “A Role for the Non-Receptor Tyrosine Kinase Abl2/Arg in Experimental Neuroinflammation” (Journal of Neuroimmune Pharmacology, 2018).
Changes are numbered by the printed parent chain.

Target: actin filaments (F-actin) from chicken skeletal muscle (chicken, UniProt P68139 1-377)
Assay: co-sedimentation; increasing amounts of Arg/Arg V1030M incubated with 1 μM actin filaments; 40 mM Hepes pH 7.25, 150 mM KCl, 2 mM MgCl2, 0.01% NP40, 4.5% glycerol; supernatant and pellet on SDS-PAGE, Coomassie R250 and densitometry; three trials
Settings: both partners purified

B1: Arg (Abl2/Arg non-receptor tyrosine kinase), valine at position 1030 (enzyme)
chain: MGQQVGRVGEAPGLQQPQPRGIRGSSAARPSGRRRDPAGRTADAGFNVFTQHDHFASCVEDGFEGDKTGGSSPEVLHRPFGCDAESQALNEAIRWSSKENLLGATESDPNLFVALYDFVASGDNTLSITKGEKLRVLGYNQNGEWSEVRSKNGQGWVPSNYITPVNSLEKHSWYHGPVSRSAAEYLLSSLINGSFLVRESESSPGQLSISLRYEGRVYHYRINTTTDSKVYVTAESRFSTLAELVHHHSTVADGLVTTLHYPAPKCNKPTVYGVSPIHDKWEMERTDITMKHKLGGGQYGEVYVGVWKKYSLTVAVKTFKEDTMEVEEFLKEAAVMKEIKHPNLVQLLGVCTLEPPFYIVTEYMPYGNLLDYLRECSREEVTAVVLLYMATQISSAMEYLEKKNFIHRDLAARNCLVGENHVVKVADFGLSRLMTGDTYTAHAGAKFPIKWTAPESLAYNTFSIKSDVWAFGVLLWEIATYGMSPYPGIDLSQVYDLLEKGYRMEQPEGCPPKVYELMRACWKWSPADRPSFAETHQAFETMFHDSSISEEVAEELGRTASSSSVVPYLPRLPLLPSKTRTLRKQGENKENLDGGLDAAESLASSSAPAGFIRSTQASSGSPALPRKQRDKSPSSLLEDAKETCFTRDRKGGFFSSFMKKRNAPTPPKRSSSFREMENQPHKKYELTGNFSPVASLQNADGFSVAPSQQEPNLVPAKCYGGSFAQRNLCADDDSGGGGGSGTAGGGWSGITGFFTPRLIKKTLGLRAGKPTASDDTSKPFPRSNSTSSMSSGLPEQDRMAMTLPRNCQRSKLQLERTVSTSSQPEENVDRANDMLPKKSEEGAAPARERPKAKLLPRGATALPLRAPDPAITESDSPGVGVAGVAAAPKGKERNGGTRLGVAGVPEDGEQLGWSSPAKAVAVLPTTHNHKVPVLISPTLKHTPADVQLIGTDSQGNKFKLLSEHQVTSSGDKDRPRRVKPKCAPPPPPVMRLLQHPSTCSDPEEEPTAPPAGQHTPETQEGGKKAAPGPVPSSGKPGRPVMPPPQVPLPTSSISPAKMANGTAGTKVALRKTKQAAEKISADKISKEALLECADLLSSAITEPVPNSQLVDTGHQLLDYCSGYVDSIPQTRNKFAFREAVSKLELSLQELQVSSTAAGVPGTNPVLNNLLSCVQEISDVVQR
notes: SNP rs30466582); neither tags nor construct limits are stated here; also called Arg_1030V; Abelson related gene; source: Hi5 cells via baculoviral vectors, purified as previously described (Wang et al., 2001)
  Kd: 710 ± 500 nM

B2: Arg V1030M (enzyme)
chain: B1 chain with V1030M
notes: SNP rs30466582); neither tags nor construct limits are stated here; also called Arg_1030M; source: Hi5 cells via baculoviral vectors, purified as previously described (Wang et al., 2001)
  Kd: 860 ± 640 nM
